# US20170275356A1 (Eli Lilly, published 2017)
# Several values for one entry are separate records, joined by “and”; a condition that tells them apart may be missing. Equal values may be shown once.
# T1: human IL-23 (human, UniProt P29460 23-328)
# T1 sequence 1: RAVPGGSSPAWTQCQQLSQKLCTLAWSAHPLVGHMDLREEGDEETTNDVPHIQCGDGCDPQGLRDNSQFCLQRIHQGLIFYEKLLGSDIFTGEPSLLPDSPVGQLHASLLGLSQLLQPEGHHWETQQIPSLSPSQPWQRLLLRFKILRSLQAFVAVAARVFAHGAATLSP
# T1 sequence 2: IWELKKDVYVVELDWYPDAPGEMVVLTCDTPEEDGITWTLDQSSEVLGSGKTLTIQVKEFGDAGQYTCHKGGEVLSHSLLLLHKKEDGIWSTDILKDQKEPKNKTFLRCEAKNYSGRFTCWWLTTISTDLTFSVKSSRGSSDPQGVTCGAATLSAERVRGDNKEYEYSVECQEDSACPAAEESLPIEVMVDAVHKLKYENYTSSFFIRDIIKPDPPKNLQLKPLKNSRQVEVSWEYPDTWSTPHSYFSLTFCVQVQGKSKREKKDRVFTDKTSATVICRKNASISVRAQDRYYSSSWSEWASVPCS
# T2: mouse IL-23 (mouse, UniProt Q9EQ14 22-196; P43432 23-335)
# T2 construct: Construct not described
# T2 sequence (looked up) 1: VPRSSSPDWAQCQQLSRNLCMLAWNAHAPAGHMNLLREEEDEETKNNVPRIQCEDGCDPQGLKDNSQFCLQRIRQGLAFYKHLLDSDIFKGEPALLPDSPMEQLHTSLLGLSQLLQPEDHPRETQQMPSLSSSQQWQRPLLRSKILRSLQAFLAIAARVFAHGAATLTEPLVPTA
# T2 sequence (looked up) 2: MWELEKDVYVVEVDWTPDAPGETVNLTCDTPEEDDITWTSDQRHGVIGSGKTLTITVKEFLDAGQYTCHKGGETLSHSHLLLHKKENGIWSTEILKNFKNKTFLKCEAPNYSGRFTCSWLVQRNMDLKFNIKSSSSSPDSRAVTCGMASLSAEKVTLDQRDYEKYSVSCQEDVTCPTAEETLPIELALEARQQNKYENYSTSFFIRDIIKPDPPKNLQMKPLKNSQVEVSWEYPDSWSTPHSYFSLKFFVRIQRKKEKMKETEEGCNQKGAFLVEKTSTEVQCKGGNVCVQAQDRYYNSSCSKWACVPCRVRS
# T3: human IL-12 (human, UniProt P29459 23-219; P29460 23-328)
# T3 construct: construct not described
# T3 sequence (looked up) 1: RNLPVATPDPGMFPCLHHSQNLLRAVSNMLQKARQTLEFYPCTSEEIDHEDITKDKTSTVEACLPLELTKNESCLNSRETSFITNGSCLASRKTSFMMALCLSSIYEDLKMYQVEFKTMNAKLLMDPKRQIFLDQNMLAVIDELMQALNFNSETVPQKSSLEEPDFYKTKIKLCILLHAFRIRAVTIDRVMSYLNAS
# T3 sequence (looked up) 2: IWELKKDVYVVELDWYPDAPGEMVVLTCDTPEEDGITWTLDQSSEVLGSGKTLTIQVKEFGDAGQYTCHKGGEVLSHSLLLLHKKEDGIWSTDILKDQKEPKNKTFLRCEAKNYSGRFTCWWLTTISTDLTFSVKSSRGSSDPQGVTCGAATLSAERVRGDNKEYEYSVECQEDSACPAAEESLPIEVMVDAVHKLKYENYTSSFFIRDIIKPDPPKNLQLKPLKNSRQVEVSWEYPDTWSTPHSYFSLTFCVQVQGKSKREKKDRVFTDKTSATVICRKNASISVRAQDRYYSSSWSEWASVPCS
# T4: human IL-27 (human, UniProt Q8NEV9 29-243; Q14213 21-229)
# T4 construct: subunit make-up is from general knowledge
# T4 sequence (looked up) 1: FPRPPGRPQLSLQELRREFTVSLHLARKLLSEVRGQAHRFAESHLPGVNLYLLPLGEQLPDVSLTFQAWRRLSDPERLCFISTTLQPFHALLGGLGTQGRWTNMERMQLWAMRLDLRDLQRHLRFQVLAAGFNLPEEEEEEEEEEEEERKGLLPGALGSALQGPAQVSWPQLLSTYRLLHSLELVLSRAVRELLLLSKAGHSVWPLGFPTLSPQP
# T4 sequence (looked up) 2: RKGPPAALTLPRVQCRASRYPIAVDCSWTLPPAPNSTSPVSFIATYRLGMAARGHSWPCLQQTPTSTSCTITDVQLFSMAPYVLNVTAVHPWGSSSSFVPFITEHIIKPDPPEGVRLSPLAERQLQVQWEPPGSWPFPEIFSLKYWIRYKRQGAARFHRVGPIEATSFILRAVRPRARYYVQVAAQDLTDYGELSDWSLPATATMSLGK
# T5: human IL-35 (human, UniProt P29459 23-219; Q14213 21-229, limits assumed)
# T5 construct: subunit make-up is from general knowledge
# T5 sequence (looked up) 1: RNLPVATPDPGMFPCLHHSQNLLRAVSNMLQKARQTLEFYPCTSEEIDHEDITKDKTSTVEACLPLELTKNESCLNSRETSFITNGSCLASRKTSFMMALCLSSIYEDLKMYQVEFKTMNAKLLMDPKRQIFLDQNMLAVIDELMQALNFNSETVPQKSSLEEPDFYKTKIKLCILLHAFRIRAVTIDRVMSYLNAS
# T5 sequence (looked up) 2: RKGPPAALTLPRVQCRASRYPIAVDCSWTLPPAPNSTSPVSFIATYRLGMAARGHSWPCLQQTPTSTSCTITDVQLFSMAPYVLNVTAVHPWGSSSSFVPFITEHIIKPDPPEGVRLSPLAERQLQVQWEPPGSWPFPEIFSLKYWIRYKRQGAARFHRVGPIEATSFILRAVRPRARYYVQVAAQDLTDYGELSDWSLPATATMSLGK
# Legend:
# human IL-23 [1] = target: T1, human IL-23; test: cell-based or functional assay
# human IL-23 [2] = target: T1, human IL-23; test: cell-based or functional assay; remark: listed apart in the source
# cynomolgus monkey IL-23 [3] = target: cynomolgus monkey IL-23 (cynomolgus monkey); test: cell-based or functional assay
# mouse IL-23 = target: T2, mouse IL-23; test: SPR (BIAcore), Antibody I captured on Protein A, 37 °C
# Procedure: (§1) Antibody affinity (KD) to human, cynomolgus monkey or rabbit IL-23 is determined using a BIAcore Biosensor 2000 and BIAevaluation software with a 1:1 binding with mass transfer model. A capture protein (Protein A, Calbiochem) is coupled via free amine groups to carboxyl groups on flow cells 1 and 2 of a CM4 biosensor chip using a mixture of N-ethyl-N-(dimethylaminopropyl)-carbodiimide (EDC) and N-hydroxysuccinimide (NHS). Flow cells are monitored with a flow rate of 80 μL/minute using a buffer containing 0.01 M HEPES, pH 7.4, 150 mM NaCl, 0.005% surfactant P20. Antibody I is captured on flow cell 2 to yield a total of 40 to 60 response units (RU). Multiple cycles of increasing concentrations of IL-23 are then injected over flow cells 1 and 2 (0.62 nM to 30 nM for human and monkey IL-23 and 30 nM to 240 nM for rabbit IL-23) followed by a regeneration step using glycine-HCl (pH 1.5) between each cycle. Flow cell 1 is used as a control to monitor non-specific binding of IL-23 and the data reflects flow cell 2 minus flow cell 1. Each cycle includes an antibody capture step followed by injection of IL-23 at one concentration with a 30 minute dissociation period, then regeneration. Two cycles where buffer is injected in place of IL-23, serve as a control for baseline subtraction and correct for drift associated with the dissociation of Antibody I from the protein A surface. Affinity is measured at 37 ° C. The assay is performed 2 times with human, monkey or rabbit IL-23. Antibody I is tested 2 times each with mouse IL-23 at 333 nM, rat IL-23 at 200 nM, human IL-12 at 333 nM, human IL-27 at 500 nM or human IL-35 at 833 nM.
# (§2) Antibody I produces a concentration-dependent binding response with human, cynomolgus monkey, and rabbit IL-23 using this method. Saturation of binding of IL-23 is attained at a concentration of 30 nM (human and monkey) and 240 nM (rabbit) using […] of Antibody I captured on the chip surface.
# human IL-12 = target: T3, human IL-12; test: as above
# Procedure: as §1, §2
# human IL-27 = target: T4, human IL-27; test: as above
# Procedure: as §1, §2
# human IL-35 = target: T5, human IL-35; test: as above
# Procedure: as §1, §2
# human IL-23 [4] = target: T1, human IL-23; test: SPR (BIAcore 2000), Antibody I captured on Protein A, IL-23 injected, 37 °C, n=2
# Procedure: as §1
# (§3) The on-rate (kₒₙ) and off-rate (koff) for each antigen are evaluated using a 1:1 binding with mass transfer model. The affinity (KD) is calculated from the binding kinetics according to the relationship: KD=koff/kₒₙ.
# cynomolgus monkey IL-23 [5] = target: T6, cynomolgus monkey IL-23 (cynomolgus monkey); test: as above
# T6 construct: Construct not described
# Procedure: as §1, §3
# rabbit IL-23 = target: T7, rabbit IL-23 (rabbit); test: as above
# T7 construct: Construct not described
# Procedure: as §1, §3
binder,measurement,setting,value
"Antibody I (antibody, human IgG4 S228P, kappa, F234A L235A, V domains shown, also called IL-23 Antibody) VH: QVQLVQSGAEVKKPGSSVKVSCKASGYKFTRYVMHWVRQAPGQGLEWMGYINPYNDGTNYNEKFKGRVTITADKSTSTAYMELSSLRSEDTAVYYCARNWDTGLWGQGTTVTVSS VL: DIQMTQSPSSLSASVGDRVTITCKASDHILKFLTWYQQKPGKAPKLLIYGATSLETGVPSRFSGSGSGTDFTLTISSLQPEDFATYYCQMYWSTPFTFGGGTKVEIKR",fold induction of murine keratin-16 after human IL-23 injection,human IL-23 [1],1.23 fold induction
same,"IC50 (pM), in vitro IL-23 neutralization assay, IL-17 production by murine splenocytes",human IL-23 [2],90 pM and 74 pM
same,"IC50 (pM), in vitro IL-23 neutralization assay, IL-17 production by murine splenocytes",cynomolgus monkey IL-23 [3],110 pM and 130 pM
same,binding result,mouse IL-23,no binding (tested: 333 nM)
same,binding result,human IL-12,no binding (tested: 333 nM)
same,binding result,human IL-27,no binding (tested: 500 nM)
same,binding result,human IL-35,no binding (tested: 833 nM)
same,Kd,human IL-23 [4],0.021 nM
same,koff,human IL-23 [4],5.2e-05 s⁻¹
same,kon,human IL-23 [4],2.43e+06 M⁻¹ s⁻¹
same,Kd,cynomolgus monkey IL-23 [5],0.055 nM
same,koff,cynomolgus monkey IL-23 [5],7e-05 s⁻¹
same,kon,cynomolgus monkey IL-23 [5],1.28e+06 M⁻¹ s⁻¹
same,Kd,rabbit IL-23,53 nM
same,koff,rabbit IL-23,0.00479 s⁻¹
same,kon,rabbit IL-23,90000 M⁻¹ s⁻¹
